Measured values as given in PMC5374589.

Biological target: Murine PD-L1 (murine) (UniProt Q9EP73)
Chain of UniProt Q9EP73 (Q9EP73 19-290): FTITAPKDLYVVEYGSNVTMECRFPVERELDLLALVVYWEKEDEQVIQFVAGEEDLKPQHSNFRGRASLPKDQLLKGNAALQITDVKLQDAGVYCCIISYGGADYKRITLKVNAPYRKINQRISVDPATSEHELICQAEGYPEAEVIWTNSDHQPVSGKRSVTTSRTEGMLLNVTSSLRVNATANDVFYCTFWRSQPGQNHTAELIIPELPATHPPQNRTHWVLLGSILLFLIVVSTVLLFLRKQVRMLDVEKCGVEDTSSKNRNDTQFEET

T cell-induced lysis of EG7-PD-L1 target cells in co-culture with PD-1-CD28 fusion receptor transduced OVA-specific CD8+ T cells: 3 fold
Substance: PD-1-CD28 fusion receptor
